# PMC8135044, “Lytic transglycosylase MltG cleaves in nascent peptidoglycan and produces short glycan strands” (The Cell Surface, 2021)
# T1: BsPBP2B (Bacillus subtilis, UniProt Q07868 1-713)
# T1 construct: Not pulled down by Ni-NTA beads alone; also called class B PBP2B; source: E. coli BL21 (DE3), purified from membranes (Ni-NTA, thrombin, HiTrap SP ion exchange)
# T1 sequence (looked up): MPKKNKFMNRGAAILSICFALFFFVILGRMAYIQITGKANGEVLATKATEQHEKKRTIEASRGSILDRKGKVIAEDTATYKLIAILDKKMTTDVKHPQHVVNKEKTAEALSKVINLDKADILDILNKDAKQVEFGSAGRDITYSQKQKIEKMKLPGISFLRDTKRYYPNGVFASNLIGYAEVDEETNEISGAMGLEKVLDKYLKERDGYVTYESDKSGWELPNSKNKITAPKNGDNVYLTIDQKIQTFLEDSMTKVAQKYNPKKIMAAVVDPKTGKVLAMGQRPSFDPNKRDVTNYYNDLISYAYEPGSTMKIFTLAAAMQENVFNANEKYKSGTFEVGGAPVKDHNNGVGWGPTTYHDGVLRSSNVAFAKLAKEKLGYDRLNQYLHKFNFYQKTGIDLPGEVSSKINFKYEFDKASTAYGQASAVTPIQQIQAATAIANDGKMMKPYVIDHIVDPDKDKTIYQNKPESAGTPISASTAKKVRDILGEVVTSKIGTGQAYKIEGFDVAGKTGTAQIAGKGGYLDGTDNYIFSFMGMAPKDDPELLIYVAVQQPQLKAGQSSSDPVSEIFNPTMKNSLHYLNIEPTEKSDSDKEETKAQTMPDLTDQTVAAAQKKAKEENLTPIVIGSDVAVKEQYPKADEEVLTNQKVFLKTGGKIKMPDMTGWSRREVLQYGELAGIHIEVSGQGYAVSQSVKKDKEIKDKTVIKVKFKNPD
# Target: T1, BsPBP2B
# Test: SPR; PBP2B covalently bound to ampicillin immobilised on the chip; BsMltG injected as analyte, 0 to 500 nM; 25 C; 10 mM Tris/Maleate, 150 mM NaCl, 0.05% Triton X-100, pH 7.5; response at equilibrium fitted to one site saturation; three independent experiments
# Conditions: both partners purified
binder,measurement,value
"BsMltG (enzyme, Bacillus subtilis, UniProt O34758 1-360, looked up, Named without 'His-' in the SPR and activity assays; also called YrrL; MltG from Bacillus subtilis; source: E. coli BL21 (DE3), purified from membranes (Ni-NTA, thrombin, HiTrap SP ion exchange)) MYINQQKKSFFNKKRIILSSIVVLFLIIGGAFLYGKSLLEPVEKDSKTTVNINIPSGSSVSAIASILKKNDVIKSEKAFQYYVKYKGASGFQAGFYHLNKGMDLDAIIQKLTSGATGYAFQITVTEGAQLTQIAAAIADETKYSKKQVIAKLDDETFINQLKKEFPDTVTNDVFNKNIKHPLEGYLFPATYPFNDPDTSLEDIIKAMIKQTNSYVETYKSEMKKNKVSVHKLLTMASLIEEEATEKADRHKIASVFYNRLKKKMPLQTDPTVLYAAGKHKDRVLYKDLEIDSPYNTYKNTGLTPGPIANAGMSSWEAALHPDKTDYLYFLAKSNGEVVFTKTLKEHNKAKEKYISSKNEK",Kd,128 ± 28 nM
